According to patent publication US20210355166A1, “[…] METHODS OF USE THEREOF” (priority 2018, published 2021):
Non-standard residues stand in square brackets, D forms with d. Residues, ends and D or L forms follow the SMILES beside them. No end group written: not given here. *: point of attachment. βGlc = OC[C@H]1O[C@@H](*)[C@H](O)[C@@H](O)[C@@H]1O; Dmt = Cc1cc(O)cc(C)c1C[C@H](N)C(=O)O

B1: bilaid A (H-FvVf-OH; L-Phe-D-Val-L-Val-D-Phe) (peptide)
peptide: H-F[dV]V[dF]-OH
SMILES: CC(C)[C@H](NC(=O)[C@H](NC(=O)[C@@H](N)Cc1ccccc1)C(C)C)C(=O)N[C@H](Cc1ccccc1)C(=O)O
notes: Natural product of Penicillium sp; MST-MF667; made by Fmoc synthesis for the assays; also called 1a; peptide 1a
B2: bilaid C (H-YvVf-OH; L-Tyr-D-Val-L-Val-D-Phe) (peptide)
peptide: YVVF
modifications: D-Val at 2; D-Phe at 4; free C-terminal acid
notes: Natural product of Penicillium sp; MST-MF667; made by Fmoc synthesis; also called 3a; peptide 3a
B3: H-FvGy-NH2 (L-Phe-D-Val-Gly-D-Tyr-NH2) (peptide)
peptide: H-F[dV]G[dY]-NH2
SMILES: CC(C)[C@@H](NC(=O)[C@@H](N)Cc1ccccc1)C(=O)NCC(=O)N[C@H](Cc1ccc(O)cc1)C(N)=O
notes: also called 2d; peptide 2d
B4: H-FGVy-NH2 (peptide)
peptide: H-FGV[dY]-NH2
SMILES: CC(C)[C@H](NC(=O)CNC(=O)[C@@H](N)Cc1ccccc1)C(=O)N[C@H](Cc1ccc(O)cc1)C(N)=O
B5: bilaid B (H-FvVy-OH) (peptide)
peptide: H-F[dV]V[dY]-OH
SMILES: CC(C)[C@H](NC(=O)[C@H](NC(=O)[C@@H](N)Cc1ccccc1)C(C)C)C(=O)N[C@H](Cc1ccc(O)cc1)C(=O)O
B6: H-FvVy-NH2 (peptide)
peptide: H-F[dV]V[dY]-NH2
SMILES: CC(C)[C@H](NC(=O)[C@H](NC(=O)[C@@H](N)Cc1ccccc1)C(C)C)C(=O)N[C@H](Cc1ccc(O)cc1)C(N)=O

Legend:
C57BL/6 mice = assay: Nociception (analgesia) testing on 54 C hotplate; type: in vivo, mouse; conditions: 54° C. hotplate, s.c.
Description: Experiments were performed under the guidelines of the Australian code of practice for the care and use of animals for scientific purposes (National Health and Medical Research Council, Australia, 7th Edition). Great care was taken to minimise animal suffering during these experiments and to reduce the number of animals used. […] Food and water was available ad libitum. Mice were given at least 7 days to habituate to housing facilities prior to handling, and handled by the experimenter for 4 days prior to testing. […] The experimenter was blind to all drugs tested. Animals were tested on a 54° C. hotplate, with a maximum cut-off time of 20 seconds to prevent tissue damage. Endpoints were hindpaw lick, hindpaw flutter or jump. […] The percentage of maximal possible effects (% MPE) were calculated as follows: % MPE=(test latency−baseline latency)/(cutoff latency−baseline latency)×100%. The cut-off latency was 20 seconds. Significant differences were assessed with a two-way ANOVA and Tukey's post hoc multiple comparisons test. […] Doses were transformed to the logarithm of μmol/kg. A two-way ANOVA was used to compare data at equimolar doses.

human MOPr (hMOPr) = target: T1, human MOPr (hMOPr) (Homo sapiens, UniProt P35372); assay: Inhibition of forskolin induced cAMP formation in HEK cells expressing hMOPr; type: cell-based; conditions: for TetraQ, initial screen % inhibition of forskolin-stimulate cAMP formation in hMOPr HEK cells: 10 um; for activity in cAMP screen: 10 μM
T1 construct: expressed in transfected cells; host or cells: HEK cells
T1 sequence (P35372 whole entry): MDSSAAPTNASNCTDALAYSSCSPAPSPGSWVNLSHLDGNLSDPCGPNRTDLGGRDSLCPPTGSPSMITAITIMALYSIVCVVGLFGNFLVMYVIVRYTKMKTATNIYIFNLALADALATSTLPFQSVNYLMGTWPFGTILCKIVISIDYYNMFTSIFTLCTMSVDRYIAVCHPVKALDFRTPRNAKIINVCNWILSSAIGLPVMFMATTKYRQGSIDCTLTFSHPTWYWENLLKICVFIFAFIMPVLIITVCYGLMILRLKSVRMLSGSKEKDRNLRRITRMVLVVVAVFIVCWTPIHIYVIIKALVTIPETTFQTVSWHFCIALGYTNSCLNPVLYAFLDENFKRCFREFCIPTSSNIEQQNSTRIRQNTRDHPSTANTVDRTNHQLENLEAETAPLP
Description: Procedure for measuring the level of intracellular cAMP produced upon modulation of adenylate cyclase activity by G-protein-coupled receptors (GPCRs). To test the functional interaction between opioids, and opioid-like compounds, and specific opioid GPCRs by measuring changes in intracellular cAMP levels relative to basal levels. The assay can measure agonist and antagonist activity on GPCRs by stimulating cells to either increase or decrease intracellular cAMP levels.
The assay is performed in a 384-well plate and each data point is performed in triplicate. The test compounds should be analyzed on the same plate as controls and cAMP standards. The number of compounds to be screened for activity will determine the volume of reagents and cells required for each experiment. The test compounds, controls and cAMP standards can be added to the plate in advance or while the cells are incubating with stimulation buffer. The plate should be sealed with TopSeal adhesive sealing film to avoid evaporation.
Assay background: Detection of cAMP is based on the competition between intracellular cAMP and biotinylated cAMP linked streptavidin-coated donor beads for anti-cAMP conjugated acceptor beads. When the donor and acceptor beads are in close proximity a signal emitted at 520-620 nm is detected using the Envision multilabel plate reader.
Preparation of test peptides: Test peptides are typically tested at a final concentration of 10 μM. As most test peptides are dissolved in 100% DMSO it is recommended that the DMSO concentration is limited to 2% v/v during cell stimulation to ensure maximum cell viability and responsiveness. Prepare 1 mM and 100 μM stock solutions of test peptides in an appropriate diluent and store at 4° C. For a library of peptides this can be performed in 96 well plates sealed with silicon sealing mats. Test peptides are diluted fresh from stock solutions to a working concentration in stimulation buffer with forskolin. It should be noted that as peptides are diluted 1:1 with cells in the assay the working concentration should be twice the final required concentration. It may be necessary to perform assays on compounds freshly diluted from DMSO stocks compounds to avoid experimental variability.
Preparation of cells: For best results cells should be low passage at 70-90% confluence. To prepare cells for the assay remove growth medium, add Versene and then incubate at 37° C. for approximately 5 minutes to allow cells to detach from the tissue culture plastic. Collect cells and centrifuge for 2 minutes at 275×g. Decant the supernatant and resuspend the cell pellet in 1×PBS. Determine the cell concentration using a haemocytometer. Re-centrifuge cells for 2 minutes at 275×g and decant supernatant. Resuspend cells in stimulation buffer to a final concentration of 1-4×10^4 cells per ml. Note that the cells number will influence the cAMP levels prevailing before (basal) and after adenylate cyclase activation. A cell titration should be performed to optimize the difference between basal and stimulation levels of cAMP. Cells are incubated in stimulation buffer for 20 to 30 minutes at 37° C. prior to adding 5 μl to wells containing test and control compounds. Note that cells are not added to the cAMP standards.
1. Add standards (10 μl/well), control compounds (5 μl/well) and test peptides (5 μl/well) into 384-well plates and seal with Top Seal adhesive sealing film. Leave at room temperature until the cell incubation is complete. 2. Add 5 μl cells incubated in stimulation buffer to the wells containing test peptides and control compounds, but not to the standards. Incubate cells and compounds for 30 min at 37° C. 3. Add 10 μl lysis buffer per well. 4. Under subdued lighting add 5 μl acceptor bead solution to each well. Wrap plate in foil and incubate at room temperature with gentle mixing on an orbital shaker for 60 min. 5. […]

[1] = target: T2, human µ-opioid receptor (hMOPr), human recombinant MOPr expressed in HEK-293 cells (human, UniProt P35372 1-400); assay: cell-based or functional assay
T2 sequence (P35372 whole entry): as above

[2] = target: T2, human µ-opioid receptor (hMOPr), human …; assay: competition with [3H]DAMGO (0.5 nM), membranes with human recombinant MOPr (HEK-293), filtration and scintillation counting
Description: The specific ligand binding to the receptors is defined as the difference between the total binding and the nonspecific binding determined in the presence of an excess of an unlabelled opioid ligand (naloxone, 10 μM). The results are expressed as a percent of control specific binding ((measured specific binding/control specific binding)×100) obtained in the presence of unlabelled peptides of interest. The IC₅₀ values (concentration causing a half-maximal inhibition of control specific binding) and Hill coefficients (nH) were determined by non-linear regression analysis of the competition curves generated with mean replicate values using Hill equation curve fitting (Y=D+[(A−D)/(1+(C/C₅₀nH)], where Y=specific binding, D=minimum specific binding, A=maximum specific binding, C=compound concentration, C₅₀=IC₅₀, and nH=slope factor).

| Molecule | TetraQ, initial screen % inhibition of forskolin-stimulate cAMP formation in hMOPr HEK cells (human MOPr (hMOPr)) | % inhibition of forskolin-stimulate cAMP formation in hMOPr HEK cells (10 um) [1] [%] | further results |
| --- | --- | --- | --- |
| 2,6-dimethyl-L-tyrosine-D-Val-L-Val-D-Phe-L-Ser(β-D-Glc)-NH2 ([Dmt][dV]V[dF]S(βGlc)-NH2; N-terminus assumed; SMILES Cc1cc(O)cc(C)c1C[C@H](N)C(=O)N[C@@H](C(=O)N[C@H](C(=O)N[C@H](Cc1ccccc1)C(=O)N[C@@H](CO[C@@H]1O[C@H](CO)[C@@H](O)[C@H](O)[C@H]1O)C(N)=O)C(C)C)C(C)C) [peptide 3h] |  |  | analgesic activity after systemic administration (C57BL/6 mice): systemically inactive |
| C[C@@H](NC(=O)[C@@H](N)Cc1ccc(O)cc1)C(=O)NCC(=O)N(C)[C@@H](Cc1ccccc1)C(=O)NCCO [DAMGO, [D-Ala^2, N-MePhe^4, Gly^5-ol]-enkephalin, reference compound] | DAMGO = 94%) |  |  |
| CC(C)[C@H](NC(=O)[C@H](NC(=O)[C@@H](N)Cc1ccccc1)C(C)C)C(=O)N[C@H](Cc1ccccc1)C(=O)O [peptide 1a, L-Phe-D-Val-L-Val-D-Phe] (H-F[dV]V[dF]-OH) | 21% |  | activity in cAMP screen (human MOPr (hMOPr)): showed activity |
| CC(C)[C@@H](NC(=O)[C@@H](N)Cc1ccccc1)C(=O)NCC(=O)N[C@H](Cc1ccc(O)cc1)C(N)=O [peptide 2d, L-Phe-D-Val-Gly-D-Tyr-NH2] (H-F[dV]G[dY]-NH2) | 31% |  |  |
| CC(C)[C@H](NC(=O)[C@H](NC(=O)[C@@H](N)Cc1ccc(O)cc1)C(C)C)C(=O)N[C@H](Cc1ccccc1)C(=O)O [peptide 3a, L-Tyr-D-Val-L-Val-D-Phe] |  |  | activity in cAMP screen (human MOPr (hMOPr)): showed activity |
| H-FGGy-NH2 (H-FGG[dY]-NH2; SMILES NC(=O)[C@@H](Cc1ccc(O)cc1)NC(=O)CNC(=O)CNC(=O)[C@@H](N)Cc1ccccc1) [2f] | 0% |  |  |
| H-FGVy-NH2 (H-FGV[dY]-NH2; SMILES CC(C)[C@H](NC(=O)CNC(=O)[C@@H](N)Cc1ccccc1)C(=O)N[C@H](Cc1ccc(O)cc1)C(N)=O) [2e] | 0% |  |  |
| H-FVVY-NH2 [2c] | 0% |  |  |
| H-FVvf-NH2 [1g] | 0% |  |  |
| H-FVvf-OH [1c] | 0% |  | activity in cAMP screen (human MOPr (hMOPr)): inactive |
| H-FvVy-NH2 [2b] | 0% |  | activity in cAMP screen (human MOPr (hMOPr)): Neither Bilaid B (2a) nor its C-terminal carboxamide analogue (2b) showed activity |
| H-FvVy-OH (H-F[dV]V[dY]-OH; SMILES CC(C)[C@H](NC(=O)[C@H](NC(=O)[C@@H](N)Cc1ccccc1)C(C)C)C(=O)N[C@H](Cc1ccc(O)cc1)C(=O)O) [2a] | 0% |  | activity in cAMP screen (human MOPr (hMOPr)): Neither Bilaid B (2a) nor its C-terminal carboxamide analogue (2b) showed activity |
| H-fVvF-NH2 [1f] | 0% |  |  |
| H-fVvF-OH [1b] | 0% |  | activity in cAMP screen (human MOPr (hMOPr)): inactive |
| H-fvVF-OH [1d] | 0% |  |  |
| H-FVVY-NH2 [H-FVVY-NH2] |  | 0 |  |
| FVVF (D-Phe at 1; D-Val at 3; C-terminal amide) [H-fVvF-NH2] |  | 0 |  |
| B1 |  | 21 | Ki [2]: 3.1 µM |
| B2 |  | 77 | Ki [2]: 0.21 µM |
| H-FGG[dY]-NH2 (SMILES NC(=O)[C@@H](Cc1ccc(O)cc1)NC(=O)CNC(=O)CNC(=O)[C@@H](N)Cc1ccccc1) [H-FGGy-NH2] |  | 0 |  |
| B3 |  | 31 | Ki [2]: 1.6 µM |
| B4 |  | 0 |  |
| H-[dF]V[dV]F-OH [H-fVvF-OH] |  | 0 |  |
| B5 |  | 0 |  |
| FVVF (D-Val at 3; D-Phe at 4; C-terminal amide) [H-FVvf-NH2] |  | 0 |  |
| B6 |  | 0 |  |
| H-[dF][dV]VF-OH [H-fvVF-OH] |  | 0 |  |
| H-FV[dV][dF]-OH [H-FVvf-OH] |  | 0 |  |
